Assay in all cases: cryo-EM structure
The target of data set [1] is dihydrolipoyl transacetylase (E2) (porcine (endogenous in porcine heart mitochondria)).
Data set [2] deals with the molecule itself.
Data set [3] has as its target dihydrolipoamide dehydrogenase-binding protein (E3BP) (porcine (endogenous in porcine heart mitochondria)).

Turning to “pyruvate dehydrogenase (E1) α2β2 heterotetramer (from UniProt P29804 31-390) (complex)”, in data set [1], the N, LD per E1 heterotetramer worked out at 1; the N, PSBD per E1 heterotetramer stood at 1; the percent of E1 heterotetramers with additional density (LD) was 82%; the ratio of E1 with LD bound to E1 without LD bound was 4.5 times.
For “dihydrolipoyl transacetylase (E2) (enzyme)”, the stoichiometry N (as a rule, the number of molecules, sites or subunits per partner or assembly) in data set [1] came to 60.

B1: dihydrolipoyl dehydrogenase (E3) dimer (enzyme, UniProt P09623 36-509, looked up)
chain: ADQPIDADVTVIGSGPGGYVAAIKAAQLGFKTVCIEKNETLGGTCLNVGCIPSKALLNNSHYYHMAHGKDFASRGIEMSEVRLNLEKMMEQKSNAVKALTGGIAHLFKQNKVVRVNGYGKITGKNQVTATKADGSTEVINTKNILIATGSEVTPFPGITIDEDTVVSSTGALSLKKVPEKMVVIGAGVIGVELGSVWQRLGADVTAVELLGHVGGIGIDMEVSKNFQRILQKQGFKFKLNTKVIGATKKSDGNIDVSIEAASGGKAEVITCDVLLVCIGRRPFTQNLGLEELGIELDPRGRIPVNTRFQTKIPNIYAIGDVVAGPMLAHKAEDEGIICVEGMAGGAVHIDYNCVPSVIYTHPEVAWVGKSEEQLKEEGIEYKVGKFPFAANSRAKTNADTDGMVKILGQKSTDRVLGAHIIGPGAGEMINEAALALEYGASCEDIARVCHAHPTLSEAFREANLAASFGKAINF
Regarding B1, the “stoichiometry N” value in data set [2] came out at 2; in data set [3] it was 1.
